The assay deals with T1, N-terminus of Glis3 (aa 1-653) fused to the Gal4 DBD (mouse, UniProt F6SGN4 1-653).
T1 sequence (looked up): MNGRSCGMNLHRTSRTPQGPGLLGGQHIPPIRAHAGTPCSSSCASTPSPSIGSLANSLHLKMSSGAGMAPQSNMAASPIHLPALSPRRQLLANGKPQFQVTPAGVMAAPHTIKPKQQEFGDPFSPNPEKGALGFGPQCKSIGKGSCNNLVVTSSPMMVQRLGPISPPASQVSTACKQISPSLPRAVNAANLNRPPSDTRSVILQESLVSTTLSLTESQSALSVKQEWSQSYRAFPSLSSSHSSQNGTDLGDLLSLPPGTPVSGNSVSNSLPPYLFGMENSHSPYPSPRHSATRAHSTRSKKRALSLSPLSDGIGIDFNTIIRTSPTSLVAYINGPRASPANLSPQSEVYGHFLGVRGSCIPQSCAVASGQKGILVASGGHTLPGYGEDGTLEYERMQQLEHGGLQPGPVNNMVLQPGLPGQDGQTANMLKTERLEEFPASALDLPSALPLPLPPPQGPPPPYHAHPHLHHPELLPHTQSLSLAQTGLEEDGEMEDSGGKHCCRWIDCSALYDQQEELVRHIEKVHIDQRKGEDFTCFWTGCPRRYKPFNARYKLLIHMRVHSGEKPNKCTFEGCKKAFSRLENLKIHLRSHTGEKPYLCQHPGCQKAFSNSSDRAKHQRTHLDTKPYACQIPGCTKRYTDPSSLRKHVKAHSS
The assay can be described thus: two-hybrid.

B1: full length PIASy fused to the Gal4 AD (VP16-PIASy) (natural protein, UniProt Q9JM05 1-507, looked up)
chain: MAAELVEAKNMVMSFRVSDLQMLLGFVGRSKSGLKHELVTRALQLVQFDCSPELFKKIKELYETRYAKKSAEPGPQAPRPLDPLALHSMPRTPLSGPTVDYPVLYGKYLNGLGRLPTKTLKPEVRLVKLPFFNMLDELLKPTELVPQSAEKLQESPCIFALTPRQVEMIRNSRELQPGVKAVQVVLRICYSDTSCPQEDQYPPNIAVKVNHSYCSVPGYYPSNKPGVEPKRPCRPINLTHLMYLSSATNRITVTWGNYGKSYSVALYLVRQLTSSDLLQRLKTIGVKHPELCKALVKEKLRLDPDSEIATTGVRVSLICPLVKMRLSVPCRAETCAHLQCFDAVFYLQMNEKKPTWMCPVCDKPAAYDQLIIDGLLSKILSECEGADEIEFLAEGSWRPIRAEKEPSCSPQGPILVLGTSDANGLAPASSTPGIGSGLSGPGSAGSGAGAAGSLENGKTGADVVDLTLDSSSSSEDEDEDEDDDEDEDEGPRPKRRCPFQKGLVPAC
For B1, the “fold increase in luciferase expression (two-hybrid, chimeras co-expressed)” value turned out to be 1.5 fold.

Values taken from article PMC6077130 (Heliyon, 2018).
